From US20220411483A1 (Chugai, published 2022)

T1: FcγRIIb extracellular domain with C-terminal His tag (human, UniProt P31994 43-217)
T1 construct: extracellular domain; also called FcgRIIb; not shown: His tag at the C terminus
T1 sequence (looked up): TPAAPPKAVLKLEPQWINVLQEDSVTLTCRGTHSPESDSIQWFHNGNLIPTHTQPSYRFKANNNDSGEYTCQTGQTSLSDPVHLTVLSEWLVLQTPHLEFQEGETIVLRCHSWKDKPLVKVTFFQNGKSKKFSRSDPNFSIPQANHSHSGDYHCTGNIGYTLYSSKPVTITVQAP

T2: FcγRIIa R type extracellular domain with C-terminal His tag (human, UniProt P12318 34-217)
T2 construct: extracellular domain; also called FcgRIIaR; not shown: His tag at the C terminus
T2 sequence (looked up): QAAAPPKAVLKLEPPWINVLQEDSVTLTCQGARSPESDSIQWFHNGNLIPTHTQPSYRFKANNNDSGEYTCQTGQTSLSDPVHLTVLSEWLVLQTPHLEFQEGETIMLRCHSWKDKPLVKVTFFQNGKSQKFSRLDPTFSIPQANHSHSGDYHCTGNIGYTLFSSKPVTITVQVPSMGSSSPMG


Columns and labels:
Assay in all cases: SPR, antibody captured, FcgR analyte
[1] = molecular target: T3, FcγRIa extracellular domain with C-terminal His tag (human, UniProt P12314 16-292)
T3 construct: also called FcgRIa; CD64; not shown: His tag at the C terminus

[2] = molecular target: T1, FcγRIIb extracellular domain with …
[3] = molecular target: T2, FcγRIIa R type extracellular domain …

T3 sequence (P12314 16-292): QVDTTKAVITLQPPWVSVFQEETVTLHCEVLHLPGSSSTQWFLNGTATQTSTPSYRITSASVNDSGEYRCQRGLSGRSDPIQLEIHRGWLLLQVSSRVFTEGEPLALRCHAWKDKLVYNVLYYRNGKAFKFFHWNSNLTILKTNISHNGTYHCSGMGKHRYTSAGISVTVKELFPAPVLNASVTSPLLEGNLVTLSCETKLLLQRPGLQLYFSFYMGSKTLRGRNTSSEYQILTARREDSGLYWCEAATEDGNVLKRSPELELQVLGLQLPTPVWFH

Kd [1] | Kd [2] | Kd [3] | Binder
9.4 nM | 4.1 nM | 160 nM | IL6R-BP555/IL6R-L (antibody, human IgG1, kappa, name in EU numbering, human IgG1) heavy: QVQLQESGPGLVKPSETLSLTCAVSGHSISHDHAWSWVRQPPGEGLEWIGFISYSGITNYNPSLQGRVTISRDNSKNTLYLQMNSLRAEDTAVYYCARSLARTTAMDYWGEGTLVTVSSASTKGPSVFPLAPSSKSTSGGTAALGCLVKDYFPEPVTVSWNSGALTSGVHTFPAVLQSSGLYSLSSVVTVPSSSLGTQTYICNVNHKPSNTKVDKKVEPKSCDKTHTCPPCPAPELLGDDSVFLFPPKPKDTLMISRTPEVTCVVIDVAEEDGDVKFNWYVDGVEVHNAKTKPREEQDNSTYRVVSVLTVLHQDWLNGKEYKCKVSNKALPRPIEKTISKAKGQPREPQVYTLPPSRDELTKNQVSLTCLVKGFYPSDIAVEWESNGQPENNYKTTPPVLDSDGSFFLYSKLTVDKSRWQQGNVFSCSVMHEALHNHYTQESLSLSP light: not shown
3.4 nM | 3.1 nM | 86 nM | IL6R-BP553/IL6R-L (antibody, human IgG1, kappa, name in EU numbering, human IgG1) heavy: QVQLQESGPGLVKPSETLSLTCAVSGHSISHDHAWSWVRQPPGEGLEWIGFISYSGITNYNPSLQGRVTISRDNSKNTLYLQMNSLRAEDTAVYYCARSLARTTAMDYWGEGTLVTVSSASTKGPSVFPLAPSSKSTSGGTAALGCLVKDYFPEPVTVSWNSGALTSGVHTFPAVLQSSGLYSLSSVVTVPSSSLGTQTYICNVNHKPSNTKVDKKVEPKSCDKTHTCPPCPAPDLLGDDSVFLFPPKPKDTLMISRTPEVTCVVIDVAEEDGDVKFNWYVDGVEVHNAKTKPREEQYNSTYRVVSVLTVLHQDWLNGKEYKCKVSNKALPRPIEKTISKAKGQPREPQVYTLPPSRDELTKNQVSLTCLVKGFYPSDIAVEWESNGQPENNYKTTPPVLDSDGSFFLYSKLTVDKSRWQQGNVFSCSVMHEALHNHYTQESLSLSP light: not shown
2.6 nM | 2.9 nM | 100 nM | IL6R-BP507/IL6R-L (antibody, human IgG1, kappa, name in EU numbering, human IgG1) heavy: QVQLQESGPGLVKPSETLSLTCAVSGHSISHDHAWSWVRQPPGEGLEWIGFISYSGITNYNPSLQGRVTISRDNSKNTLYLQMNSLRAEDTAVYYCARSLARTTAMDYWGEGTLVTVSSASTKGPSVFPLAPSSKSTSGGTAALGCLVKDYFPEPVTVSWNSGALTSGVHTFPAVLQSSGLYSLSSVVTVPSSSLGTQTYICNVNHKPSNTKVDKKVEPKSCDKTHTCPPCPAPDLLGDDSVFLFPPKPKDTLMISRTPEVTCVVIDVAEEDGPVKFNWYVDGVEVHNAKTKPREEQYNSTYRVVSVLTVLHQDWLNGKEYKCKVSNKALPRPIEKTISKAKGQPREPQVYTLPPSRDELTKNQVSLTCLVKGFYPSDIAVEWESNGQPENNYKTTPPVLDSDGSFFLYSKLTVDKSRWQQGNVFSCSVMHEALHNHYTQESLSLSP light: not shown

The next lines start with the binder.

Binder | Kd [1] | Kd [2] | Kd [3]
IL6R-BP490/IL6R-L (antibody, human IgG1, kappa, name in EU numbering, human IgG1) heavy: QVQLQESGPGLVKPSETLSLTCAVSGHSISHDHAWSWVRQPPGEGLEWIGFISYSGITNYNPSLQGRVTISRDNSKNTLYLQMNSLRAEDTAVYYCARSLARTTAMDYWGEGTLVTVSSASTKGPSVFPLAPSSKSTSGGTAALGCLVKDYFPEPVTVSWNSGALTSGVHTFPAVLQSSGLYSLSSVVTVPSSSLGTQTYICNVNHKPSNTKVDKKVEPKSCDKTHTCPPCPAPELLGDDSVFLFPPKPKDTLMISRTPEVTCVVIDVAEEDGEVKFNWYVDGVEVHNAKTKPREEQYNSTYRVVSVLTVLHQDWLNGKEYKCKVSNKALPRPIEKTISKAKGQPREPQVYTLPPSRDELTKNQVSLTCLVKGFYPSDIAVEWESNGQPENNYKTTPPVLDSDGSFFLYSKLTVDKSRWQQGNVFSCSVMHEALHNHYTQESLSLSP light: not shown | 4.5 nM | 2.4 nM | 110 nM
IL6R-BP506/IL6R-L (antibody, human IgG1, kappa, name in EU numbering, human IgG1) heavy: QVQLQESGPGLVKPSETLSLTCAVSGHSISHDHAWSWVRQPPGEGLEWIGFISYSGITNYNPSLQGRVTISRDNSKNTLYLQMNSLRAEDTAVYYCARSLARTTAMDYWGEGTLVTVSSASTKGPSVFPLAPSSKSTSGGTAALGCLVKDYFPEPVTVSWNSGALTSGVHTFPAVLQSSGLYSLSSVVTVPSSSLGTQTYICNVNHKPSNTKVDKKVEPKSCDKTHTCPPCPAPDLLGDDSVFLFPPKPKDTLMISRTPEVTCVVIDVAEEDGPVKFNWYVDGVEVHNAKTKPREEQDNSTYRVVSVLTVLHQDWLNGKEYKCKVSNKALPRPIEKTISKAKGQPREPQVYTLPPSRDELTKNQVSLTCLVKGFYPSDIAVEWESNGQPENNYKTTPPVLDSDGSFFLYSKLTVDKSRWQQGNVFSCSVMHEALHNHYTQESLSLSP light: not shown | 3.1 nM | 3.4 nM | 120 nM
IL6R-BP537/IL6R-L (antibody, human IgG1, human IgG1) heavy: QVQLQESGPGLVKPSETLSLTCAVSGHSISHDHAWSWVRQPPGEGLEWIGFISYSGITNYNPSLQGRVTISRDNSKNTLYLQMNSLRAEDTAVYYCARSLARTTAMDYWGEGTLVTVSSASTKGPSVFPLAPSSKSTSGGTAALGCLVKDYFPEPVTVSWNSGALTSGVHTFPAVLQSSGLYSLSSVVTVPSSSLGTQTYICNVNHKPSNTKVDKKVEPKSCDKTHTCPPCPAPELLGDDSVFLFPPKPKDTLMISRTPEVTCVVIDVGEEDGEVKFNWYVDGVEVHNAKTKPREEQYNSTYRVVSVLTVLHQDWLNGKEYKCKVSNKALPRPIEKTISKAKGQPREPQVYTLPPSRDELTKNQVSLTCLVKGFYPSDIAVEWESNGQPENNYKTTPPVLDSDGSFFLYSKLTVDKSRWQQGNVFSCSVMHEALHNHYTQESLSLSP light: not shown | 29 nM | 6.9 nM | 270 nM
IL6R-BP531/IL6R-L (antibody, human IgG1, kappa, name in EU numbering, human IgG1) heavy: QVQLQESGPGLVKPSETLSLTCAVSGHSISHDHAWSWVRQPPGEGLEWIGFISYSGITNYNPSLQGRVTISRDNSKNTLYLQMNSLRAEDTAVYYCARSLARTTAMDYWGEGTLVTVSSASTKGPSVFPLAPSSKSTSGGTAALGCLVKDYFPEPVTVSWNSGALTSGVHTFPAVLQSSGLYSLSSVVTVPSSSLGTQTYICNVNHKPSNTKVDKKVEPKSCDKTHTCPPCPAPDLLGDDSVFLFPPKPKDTLMISRTPEVTCVVIDVGEEDGEVKFNWYVDGVEVHNAKTKPREEQDNSTYRVVSVLTVLHQDWLNGKEYKCKVSNKALPRPIEKTISKAKGQPREPQVYTLPPSRDELTKNQVSLTCLVKGFYPSDIAVEWESNGQPENNYKTTPMVLDSDGSFFLYSKLTVDKSRWQQGNVFSCSVMHEALHNHYTQESLSLSP light: not shown | 9.4 nM | 3.8 nM | 120 nM
IL6R-BP532/IL6R-L (antibody, human IgG1, kappa, name in EU numbering, human IgG1) heavy: QVQLQESGPGLVKPSETLSLTCAVSGHSISHDHAWSWVRQPPGEGLEWIGFISYSGITNYNPSLQGRVTISRDNSKNTLYLQMNSLRAEDTAVYYCARSLARTTAMDYWGEGTLVTVSSASTKGPSVFPLAPSSKSTSGGTAALGCLVKDYFPEPVTVSWNSGALTSGVHTFPAVLQSSGLYSLSSVVTVPSSSLGTQTYICNVNHKPSNTKVDKKVEPKSCDKTHTCPPCPAPDLLGDDSVFLFPPKPKDTLMISRTPEVTCVVIDVSEEDGEVKFNWYVDGVEVHNAKTKPREEQDNSTYRVVSVLTVLHQDWLNGKEYKCKVSNKALPRPIEKTISKAKGQPREPQVYTLPPSRDELTKNQVSLTCLVKGFYPSDIAVEWESNGQPENNYKTTPMVLDSDGSFFLYSKLTVDKSRWQQGNVFSCSVMHEALHNHYTQESLSLSP light: not shown | 12 nM | 3.2 nM | 94 nM
IL6R-BP552/IL6R-L (antibody, human IgG1, kappa, name in EU numbering, human IgG1) heavy: QVQLQESGPGLVKPSETLSLTCAVSGHSISHDHAWSWVRQPPGEGLEWIGFISYSGITNYNPSLQGRVTISRDNSKNTLYLQMNSLRAEDTAVYYCARSLARTTAMDYWGEGTLVTVSSASTKGPSVFPLAPSSKSTSGGTAALGCLVKDYFPEPVTVSWNSGALTSGVHTFPAVLQSSGLYSLSSVVTVPSSSLGTQTYICNVNHKPSNTKVDKKVEPKSCDKTHTCPPCPAPDLLGDDSVFLFPPKPKDTLMISRTPEVTCVVIDVAEEDGDVKFNWYVDGVEVHNAKTKPREEQDNSTYRVVSVLTVLHQDWLNGKEYKCKVSNKALPRPIEKTISKAKGQPREPQVYTLPPSRDELTKNQVSLTCLVKGFYPSDIAVEWESNGQPENNYKTTPPVLDSDGSFFLYSKLTVDKSRWQQGNVFSCSVMHEALHNHYTQESLSLSP light: not shown | 3.2 nM | 2.6 nM | 97 nM
IL6R-BP535/IL6R-L (antibody, human IgG1, kappa, name in EU numbering, human IgG1) heavy: QVQLQESGPGLVKPSETLSLTCAVSGHSISHDHAWSWVRQPPGEGLEWIGFISYSGITNYNPSLQGRVTISRDNSKNTLYLQMNSLRAEDTAVYYCARSLARTTAMDYWGEGTLVTVSSASTKGPSVFPLAPSSKSTSGGTAALGCLVKDYFPEPVTVSWNSGALTSGVHTFPAVLQSSGLYSLSSVVTVPSSSLGTQTYICNVNHKPSNTKVDKKVEPKSCDKTHTCPPCPAPDLLGDDSVFLFPPKPKDTLMISRTPEVTCVVIDVGEEDGEVKFNWYVDGVEVHNAKTKPREEQDNSTYRVVSVLTVLHQDWLNGKEYKCKVSNKGLPRPIEKTISKAKGQPREPQVYTLPPSRDELTKNQVSLTCLVKGFYPSDIAVEWESNGQPENNYKTTPMVLDSDGSFFLYSKLTVDKSRWQQGNVFSCSVMHEALHNHYTQESLSLSP light: not shown | 11 nM | 4 nM | 92 nM
IL6R-BP534/IL6R-L (antibody, human IgG1, kappa, name in EU numbering, human IgG1) heavy: QVQLQESGPGLVKPSETLSLTCAVSGHSISHDHAWSWVRQPPGEGLEWIGFISYSGITNYNPSLQGRVTISRDNSKNTLYLQMNSLRAEDTAVYYCARSLARTTAMDYWGEGTLVTVSSASTKGPSVFPLAPSSKSTSGGTAALGCLVKDYFPEPVTVSWNSGALTSGVHTFPAVLQSSGLYSLSSVVTVPSSSLGTQTYICNVNHKPSNTKVDKKVEPKSCDKTHTCPPCPAPDLLGDDSVFLFPPKPKDTLMISRTPEVTCVVIDVSEEDGEVKFNWYVDGVEVHNAKTKPREEQDNSTYRVVSVLTVLHQDWLNGKEYKCKVSNKALPRPIEKTISKAKGQPREPQVYTLPPSRDELTKNQVSLTCLVKGFYPSDIAVEWESNGQPENNYKTTPLVLDSDGSFFLYSKLTVDKSRWQQGNVFSCSVMHEALHNHYTQESLSLSP light: not shown | 9.3 nM | 3 nM | 91 nM
